In patent US20160340659A1, “ACTIN BINDING PEPTIDES AND COMPOSITIONS COMPRISING SAME FOR INHIBITING ANGIOGENESIS AND TREATING MEDICAL CONDITIONS ASSOCIATED WITH SAME” (YISSUM RESEARCH AND DEVELOPMENT COMPANY OF THE HEBREW …, priority 2014, published 2016):
Each block holds one substance with its values, some of them ahead of it.

How the values were obtained:
Rabbit muscle actin = target: T1, Rabbit muscle actin (Oryctolagus cuniculus, UniProt P68135); assay: Peptide array screen for actin binding; conditions: peptides on cellulose membrane; 5 μM actin; densitometry relative to K108-K133
T1 construct: Rabbit muscle actin (A2522, Sigma-Aldrich, St Louis, Mo.); purchased Sigma-Aldrich, St Louis, Mo; A2522; host or cells: rabbit muscle (tissue-derived)
Procedure: The peptides were acetylated at their N-termini and attached to a cellulose membrane via their C-termini through an amide bond. Peptide array (INTAVIS Bioanalytical Instruments AG, Koeln, Germany).
The array was immersed in 5 ml blocking solution (TBST containing 2.5% milk) for 4 hours with shaking, then washed once with blocking solution (30 sec.) and twice with TBST (5 min. each). 5 μM actin were dissolved in the blocking solution (˜1:3), and incubated with the array at 4° C. with shaking overnight. After washing with TBST (1×30 sec. and 2×5 min.) the array was incubated first with rabbit anti actin antibody diluted 1:100 in blocking solution for 4 hours at room temperature followed by washings three times with TBST (1×30 sec. and 2×5 min.). The array was then incubated with horseradish peroxidase-conjugated goat anti rabbit IgG antibody diluted 1:10,000 in blocking solution at room temperature for 2 hours followed by washing with TBST (1×30 sec. and 2×5 min.). Immunodetection was performed using chemiluminiscence with ECL reagents.
The modifications included an alanine scan, truncations and systematic replacements of each residue in each peptide by the corresponding D-amino acid residue and N-methylated residue, C terminal truncations and N terminal truncations. The array was screened for binding the actin protein.

actin = actin (Oryctolagus cuniculus, UniProt P68135); assay: Surface plasmon resonance (BIAcore) of actin binding; conditions: actin on CM5 chip, 25° C.
Procedure: SPR was performed on a BIAcore 3000 instrument (BIAcore, Uppsala, Sweden). Actin was diluted in 100 mM CH3COONa pH 4.6 to a final concentration of 20 μg/ml (200 μl total) resulting in ˜1 ng immobilized actin on a CM5 BIAcore sensor chip (GE Healthcare Bio-Sciences AB) using the standard BIAcore amine coupling chemistry protocol. The CM5 chip allows four separate flow cells to be operated in the BIAcore 3000 instrument used in these experiments. Coupling is achieved by activating the surface of the sensor chips with equal volumes of 50 mM N-hydroxysuccimide (NHS)/200 mM Nethyl-N-(3-[…])-carboiimide (EDC) (BIAcore, AB, Uppsala, Sweden) to form activated carboxyl groups. An actin solution […] was run over the chip for 5 min at a rate of 10 μl/min, allowing the amine groups on the protein to react with the activated esters. In the final stage of immobilization, the surface was blocked by 1M ethanol amine, pH 8.0. The binding assay was performed by injecting the hRNASET2, trT2-49, trT2-49m or peptides solutions in running buffer (HBS—10 mM Hepes, 150 mM Sodium Chloride, 3 mM EDTA, 0.005% Polysorbate 20) at 5 different concentrations at a flow rate of 10 μl/min at 25° C. Injections were performed simultaneously over all four channels and blank surface (a plain dextran matrix, channel 1) was used as control. The net signal was obtained by subtracting the blank signal from the signal of the immobilized surface. The association phase for protein or peptides binding to actin was followed for 4 min, and dissociation phases were monitored for 3 min. Surface regeneration between consecutive binding cycles included a 1 min injection of 1 mM NaOH. The response was monitored as a function of time (sensorgram) at 25° C. Multi-concentration data were globally fit using BIA evaluation 3.2 software.
The strength of a two molecule interaction is characterized by the equilibrium dissociation (binding) constant KD=[P][L]/[PL], where [P] is the concentration of free protein (or peptide), [L] the concentration of ligand and [PL] the concentration of the complex. […]

[1] = tested on: chick Chorio-Allantoic Membrane (CAM); assay: Ex ovo CAM angiogenesis assay; type: in vivo, chicken; conditions: 3 μg on paper disk daily for four days from day 8; compared to PBS control
Procedure: In this assay, in-vivo angiogenesis is assessed on live chick embryos grown in petri dishes. Fertilized eggs are cracked into a petri dish after a few (e.g. 3) days incubation at appropriate temperature (e.g. 37° C.) and humidity. In the following days, the embryos developed a vascular network, which can then easily be exposed to any treatment or combination of treatments, for example, via delivery onto absorbent disks placed on/about the developing vascular regions. Angiogenesis is scored by periodically (e.g. 1×/day, 2×/day, 1×/2 days, 1×/4 days, etc) counting the number of blood vessels around the disk.
Fertilized chicken eggs were incubated horizontally at 37° C. and humidity of 60-62% and cracked into Petri dishes at embryonic day 4. Incubation was continued under the same conditions. […] Treatment was given every day for four days, then, the number of blood vessels around the treated disks was counted.

[2] = target: T2, G-Actin from rabbit muscle (Oryctolagus cuniculus, UniProt P68135); assay: ELISA actin binding assay (solid-phase, immobilized actin); conditions: immobilized G-actin 500 ng/well
T2 construct: G-Actin from rabbit muscle; purchased Sigma-Aldrich, St Louis, Mo; host or cells: rabbit muscle (tissue-derived)
Procedure: Peptides corresponding to a variety of amino acid sequences in the region of human RNASET2 comprising helix 5 and helix 6 were synthesized and assayed for actin binding in an ELISA actin binding assay.
Solid-phase ELISA for RNASET2 peptide binding to immobilized actin was performed as modified from Mejean 1987 (Biochem. J. 244: 571-577) and Mejean 1992 (Eur. J Biochem. 209: 555-562). All steps were conducted at 37° C. Immuno-96 Microwell™ solid plates (Thermo Fisher Scientific, MA) coated with 500 ng/well of G-Actin from rabbit muscle (Sigma-Aldrich, St Louis, Mo.) in 100 ul of 0.05 M carbonate buffer, pH 9.5 (Sigma-Aldrich, Mo), incubated for 1 h and washed with 250 ul/well Tris Buffered Saline (TBS) (Sigma-Aldrich). The wells were blocked with 3% bovine serum albumin (BSA, Sigma-Aldrich) in 200 ul/well TBS for another 1 hour and washed with 250 ul/well TBS. The candidate peptides are then added at various concentrations (for example, serial dilutions giving 500, 250 or 125 ng/well) in 100 ul/well Tris Buffered Saline (TBS), incubated for 1 hour and washed 3 times with 250 ul/well TBS containing 0.05% Tween®20 (TBST, Sigma-Aldrich). Anti-T2 RNase (rabbit anti-rhtrRNASET2, Anilab, Israel, whole serum or antiserum) was then added, incubated for 1 hour and the plates washed 3 times with 250 ul/well TBST. Labeled second antibody [peroxidase-conjugated affinity pure goat-anti rabbit IgG (Jackson, Pa.)] was added at a dilution of 1:10:000 in 100 ul/well TBS, incubated for 1 hour and the plates washed twice with 250 ul/well TBST. After an additional wash with 250 ul/well TBS, 1-Step Ultra TMB-ELISA (TMB-3,3′,5,5′ Tetramethylbenzidine) (Thermo-Scientific) was added (100 ul/well) and after 15-25 min of incubation, the reaction was read at A650 using Infinite F50-TECAN ELISA READER (TECAN, Austria). Each assay was performed in triplicates.

HUVEC = HUVEC tube formation assay on Matrigel; type: cell-based, human; conditions: angiogenin or VEGF induced; 2 μM peptide
Procedure: FIGS. 6A-6D illustrate in-vitro inhibition of angiogenesis in the HUVEC model by T2 peptides. HUVEC cells plated on Matrigel™ were exposed to 2 μM of T2 peptides A103-Q159 (SEQ ID NO: 60), K108-K133 (SEQ ID NO: 57) or K108-L123 (SEQ ID NO: 67), in addition to 1 μg/ml of angiogenin or VEGF as the angiogenic agent, as indicated. Control wells received PBS. FIG. 6B-Results were assessed by imaging software, and quantified, and expressed relative to tube formation with angiogenin or VEGF alone (100%) Column 1=angiogenin, column 2=angiogenin+SEQ ID NO: 60, column 3=angiogenin+SEQ ID NO: 57, column 4=angiogenin+[…], Column 5=VEGF, column 6=VEGF+SEQ ID NO: 60, column 7=VEGF+SEQ ID NO: 57, column 8=VEGF+[…]. FIGS. 6C and 6D illustrate the inhibitory effect of truncated human T2 polypeptide trT2-49m (SEQ ID NO: 129) on angiogenin and VEGF induced HUVEC tube formation. Note the significant inhibition of HUVEC tube formation by all of the T2 peptides assayed, and in particular, K108-K133 (SEQ ID NO: 57);
HUVEC (CC-2519)(fresh or commercially provided) are maintained in M199 rrrediurn supplemented with 20% FCS, 1% glutamine, 1% antibiotic-antimycotic solution, ECGF, and heparin, plated in a 96-well plate (14×10^3 cells/well) previously coated with growth factor-depleted Matrigel™ (BD Biosciences), in M199 medium containing 5% FCS and 0.005% ECGF. The wells are supplemented with candidate T2 RNase peptides or PBS, and angiogenic growth factors (1 μg/ml angiogenin, bFGF or VEGF) to a final volume of 120 pl. Plates are incubated (overnight), photographed and the extent of tube formation (angiogenesis) assessed.

Substance: LYREL [SEQ ID NO: 132]
actin binding of immobilized peptides (Rabbit muscle actin): significant actin binding

Substance: SEQ ID NO: 1: mature full length human RNASET2, T2 family ribonuclease
Ka × 10^3 (actin): 1.44 ×10^3 1/Ms | inhibition of angiogenesis (number of blood vessels around disk) [1]: effective in inhibiting angiogenesis

Substance: SEQ ID NO: 63: peptide representing amino acids 103-141 of RNASET2 (ALNSQKKYFGRSLELYRELDLNSVLLKLGIKPSINYYQV)
actin binding on ELISA [2]: moderate

Substance: SEQ ID NO: 67: peptide K108-L123 of human RNASET2, 16 aa
inhibition of HUVEC tube formation (HUVEC): unable to inhibit tube formation

Now from value to substance:

actin binding of immobilized peptides (Rabbit muscle actin): significant actin binding
Substance: KKYFGRSLEL [SEQ ID NO: 131]

actin binding of immobilized peptides (Rabbit muscle actin): significant actin binding
Substance: KKYFGRSLELYR [SEQ ID NO: 62]
